Test results from the nanobody polyreactivity screen of Harvey et al. (2022).

Assay: yeast display, Sf9 membrane polyspecificity reagent, FACS + sequencing; frameworks hold sequencing errors
In short: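 Synthetic nanobody libraries on Saccharomyces cerevisiae BJ5465 were galactose-induced for 36–48 hours, stained 1 hour at 4 °C with 10% biotinylated, detergent-solubilized Sf9 membrane reagent and enriched on streptavidin microbeads. FACS then separated cells into low and high (top ~1%) gates by anti-HA (expression) and streptavidin (reagent binding) fluorescence. Genes were colony-PCR amplified, MiSeq 2 × 250 sequenced and CDR-length filtered. A clone's polyreactivity label is that of its gate of origin.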
In the case of “QVQLVESGGGIVQAGGSLRLSCAASGRIFRLNAMGWYRQAPGKERELVAAISSRAGSTYYADSVKGRFTISRDNAKNTVYLQMNSLKPEDTAVYYCAARTYSSRLGRDSDYWGQGTQVTVSS”, the “polyreactivity (PSR sort gate)” value is reported as “high polyreactivity”.
In the case of “QVQLVESGGGIVQAGGSLRLSCAASGRIFVPNAMGWYRQAPGKERELVAAITSDGRTNYADSVKGRFTISRDNAKHTVYLQMNSLKPEDTAVYYCNAPVVTFGGYQDDVEYGYWGQGTQVTVSS”, the “polyreactivity (PSR sort gate)” value is reported as “low polyreactivity”.
For “QVQLVESGGGIVQAGGSLRLSCAASGRIFVRNAMGWYRQARGKERELVAAISWSGGTNYADSVKGSFTISRDNAKNTVYLQMNILKPEDTAVYYCAALSVWSYYTYYYWGQGTQVTVSS”, the “polyreactivity (PSR sort gate)” value was “high polyreactivity”.
With “QVQLVESGGGIVQAGGSLRLSCAASGRIFWDYAMGWYRQAPGKERELVDVITLSGDSTYYADSVKGRFTISRDNAKNTVYLQMNSLKPEDTAVYYCAAARAIRQFWYVATFEYWGQGTQVTVSS” the “polyreactivity (PSR sort gate)” value was “low polyreactivity”.
In the case of “QVQLVESGGGIVQAGGSLRLSCAASGRIFWYNAMGWYRQAPGKERELVAGITRSGGRTYYADCVKGRFTISRDNAKNTVYLQMNSLKPEYTAVYYCAAAPYARRDYEYWGQGTQVTVSS”, the “polyreactivity (PSR sort gate)” value is reported as “high polyreactivity”.
For “QVQLVESGGGIVQAGGSLRLSCAASGRILGANDMGWYRQAPGTERELVAAITSGGRTYYADSVKGRFTISRDNAKNTVYLQMNCLKPEDTAVYYCAVGGWDESVGKGYDYWGQGTQVTVSS”, the “polyreactivity (PSR sort gate)” value was “low polyreactivity”.
In the case of “QVQLVESGGGIVQAGGSLRLSCAASGRILSRYAMGWYRQAPGKESDLVADISSGGRTHYADSVKGRFTISRDNAKNTVYFQMNSLKPEDSAVYYCAKDYTPYSRRLNSGGYYYWGQGTQVTVSS”, the “polyreactivity (PSR sort gate)” value is reported as “high polyreactivity”.
In the case of “QVQLVESGGGIVQAGGSLRLSCAASGRTFKSNAMGWSIQAPGKERELVAAISRSGVRTDYADSVKGRFTISRDNANITVYLQMNSLKPEDTAVYYCADRTWNRRSPYDYWGQGTQVTVSS”, the “polyreactivity (PSR sort gate)” value is reported as “high polyreactivity”.
In the case of “QVQLVESGGGIVQAGGSLRLSCAASGRTFKVNAMGWYIQAPGKEREFVAAITWNSGSSTYYADSVKGRFTISRDNAKNTVYLQMNSLKPEDTAVYYCAARSAGRYWNYYWGQGTQVTVSS”, the “polyreactivity (PSR sort gate)” value is reported as “high polyreactivity”.
With “QVQLVESGGGIVQAGGSLRLSCAASGRTFYGNAMGWYIQEPGKERELVAGISQNGGSTYYADSVKGRFTSSRDTAKNTVYLQMNRLKPEDSAVYYCAADSYYFTGYWAHPYDYWGEGTQVTVSS” the “polyreactivity (PSR sort gate)” value was “high polyreactivity”.
For “QVQLVESGGGIVQAGGSLRLSCAASGRTFYRNAMGWYIHAPGKERELVAAITSGGSTYYADSVKGRFTISRDNAKNSGYLQMNCLKPEDTAVYYCAALRHALRYDYWGQGTQVTVSS”, the “polyreactivity (PSR sort gate)” value was “low polyreactivity”.
With “QVQLVESGGGIVQAGGSLRLSCAASGRTFYYNAMGWYRQAPGKERELVAAISSSGGSTYYADSVKGRFTISRDNAKNTVYLQMNSLKPEDTAGYYCAASSPGARGGGGYWGQGTQVTVSS” the “polyreactivity (PSR sort gate)” value was “high polyreactivity”.
In the case of “QVQLVESGGGIVQAGGSLRLSCAASGRTSVVNAMGWYRQAPGKERELVAAITSGGSTHYADSVKGRFTISRDNAKNTVYLQINSLKPEDTAVYYCNARDRRRTNLLDYWGQGSQVTVSS”, the “polyreactivity (PSR sort gate)” value is reported as “low polyreactivity”.
In the case of “QVQLVESGGGIVQAGGSLRLSCAASGSIDWNAKGWYRQAPGKEREFVAAISSSGGRTSYADSVKGRFTISRDNAKNTVYLEMNSLKPEDTAVYYGAAAGSYDGDRYYYWGQGTQVTVSS”, the “polyreactivity (PSR sort gate)” value is reported as “high polyreactivity”.
In the case of “QVQLVESGGGIVQAGGSLRLSCAASGSIFARYAMGWSRPAPGKERELVAAISGRGGSTYYADSVKGRFTISRDHATNTDYLQMNSLKPEDTAVYYWNAVWDDYGFYSPYVVVEYDYWGQGTQVTVSS”, the “polyreactivity (PSR sort gate)” value is reported as “high polyreactivity”.
With “QVQLVESGGGIVQAGGSLRLSCAASGSIFRRNALGWYRQAPGKERELVAAISSIGSSTYYADSVKGRFTISRENAKNTVYFQMNSLKPEDTAVYYCAAVFYYATYSKKFEYWGQGTQVTVSS” the “polyreactivity (PSR sort gate)” value was “high polyreactivity”.
For “QVQLVESGGGIVQAGGSLRLSCAASGSIFVTNTMVWYRQAPGKERELVAAISYRGGSTYADSVKGRFTISRDNAKNTVYLQMNSLKPEDTAVYYCAADDLSFVGYYYGYVDDVYCGQGTQVTVSS”, the “polyreactivity (PSR sort gate)” value was “high polyreactivity”.
With “QVQLVESGGGIVQAGGSLRLSCAASGSIFYAYAMGWYRQAPGKERELVAAINRGDSTTYADSVKGRITISRDNAKNTVYLQMNSLKPEDTAVYYCAKSRPSRKYYAGVTGQGDYWGQGTQVTVSS” the “polyreactivity (PSR sort gate)” value was “low polyreactivity”.
In the case of “QVQLVESGGGIVQAGGSLRLSCAASGSILSYYAMGGYRQAPGNEREFVAAISWGTITNYADSVKGRFTISRDNAKKTVYLQMNSLKPEDTAVYYCNADPYGWYSSDYDYWGQGTQVTVSS”, the “polyreactivity (PSR sort gate)” value is reported as “low polyreactivity”.
In the case of “QVQLVESGGGIVQAGGSLRLSCAASGSILYPYAMGWYRQAPGKERELVAAISRGGSTNYADSVKGRFTISRDNAKNTVYLQMNSLKPEDTAVYYCATAYTRFSQRYEYYVIYWQNDYWGQGTQVTVSS”, the “polyreactivity (PSR sort gate)” value is reported as “low polyreactivity”.
With “QVQLVESGGGIVQAGGSLRLSCAASGSNLQYKAMGWYRQAPGKERELVADITSSGGSTYYADSVKGRFTISRDNAKNTVYLQMNSLKPEDTAVYYFAKDTHWAYYWGQGTQVTVSS” the “polyreactivity (PSR sort gate)” value was “low polyreactivity”.
For “QVQLVESGGGIVQAGGSLRLSCAASGSSHGYAMGWYRQAPGKERELVAAISLNTGSTYYADSVNGRFTISRDNAKNTVYLQMNSLKPEDTAVYFCNADDYTYATYEYDYWGQGTQVTVSS”, the “polyreactivity (PSR sort gate)” value was “low polyreactivity”.
For “QVQLVESGGGIVQAGGSLRLSCAASGSTFETNAMGRDRQAPGKERELVAAIRWSTGNTYYADSVNGRFTISRDNAKNTVYLQMNSLITEDTAVYYCAAYKAKHYKDGYWGQGTQVSVSS”, the “polyreactivity (PSR sort gate)” value was “low polyreactivity”.
In the case of “QVQLVESGGGIVQAGGSLRLSCAASGSTFRYYARGWSRQAPGKERELVATITCNAAGTYYADSVKGRFTISRDNAKNTVYLQMNSLKPEDTAVYYCAAAPWEWYHYGYYYWGQGTQVTVSS”, the “polyreactivity (PSR sort gate)” value is reported as “low polyreactivity”.
In the case of “QVQLVESGGGIVQAGGSLRLSCAASGSTFSYYDMGWYRQAPGKERELVAAISWNGGTTYYADSVKGRFTISRDNAKNTVYLQMNSLKPEDTAVYYCAATWDFYWAPYDSWGQGTQVTVSS”, the “polyreactivity (PSR sort gate)” value is reported as “low polyreactivity”.
With “QVQLVESGGGIVQAGGSLRLSCAASGSTFVTHAMGCYRQAPGKEREFVAAISWNSTSTYFADSVKGRFTISRDHAKNTVYLQMNSLKPEDTAVYYCNATTFAFSPSLKGAYGYWGQGTQVTVSS” the “polyreactivity (PSR sort gate)” value was “low polyreactivity”.
In the case of “QVQLVESGGGIVQAGGSLRLSCAASGSTFYVYAMGWYRQAPGKERELVAAITVRGGSTYYADSVKGRFTISRDNAKNTVYLQMNSLKPEDTSVDYCNAEGTYGYWRSYNYWGQGTQVTVSS”, the “polyreactivity (PSR sort gate)” value is reported as “high polyreactivity”.
With “QVQLVESGGGIVQAGGSLRLSCAASGSTIGYYAMGWSRQAPGKERELVAAISRRGGSTYYADSVKGRFTISRDNAKNTVYLQMTSLKPEDTAVYYCAADRRIGDGENYYWGQGTQVTVSS” the “polyreactivity (PSR sort gate)” value was “high polyreactivity”.
In the case of “QVQLVESGGGIVQAGGSLRLSCAASGYTFGTYAMGWYRQAPGKERELVAAITSTGGRTYYADSVKGRFTISRDNAKNTVYLQMNSLKPEDTAVYYCAAERVYRTIWHYPYYYWGQGTQVTVSS”, the “polyreactivity (PSR sort gate)” value is reported as “high polyreactivity”.
For “QVQLVESGGGIVQAGGSLRLSCAASYYDMGWYRQAPGKERELVASISSGGSTNYADSVKGRFTISRDNAKNTVYLQMNSLKPEDTAVYYCAADVADGVWVKIADEYWGQGTQVTVSS”, the “polyreactivity (PSR sort gate)” value was “low polyreactivity”.
For “QVQLVESGGGIVQAGGSLRLSCASSGRTFFWYAMVWYRQAPGKERELVAAITYRGGGTYYADSVKGRFTISRDNAKNTVYLQMNSLKPEDTAVYYCAAEYWVGVYLYDYWGQGTQVTVSS”, the “polyreactivity (PSR sort gate)” value was “high polyreactivity”.
In the case of “QVQLVESGGGIVQAGGSLRLSCDASGNTFKGYAMGWYRQAPGTESELVAAISWSGSSTYYADSLKGRFTISRDNAKNTVYFQLNSLKQEDPAVFSCNRKYLGRYASVYGYGYWGQGTQVTVSS”, the “polyreactivity (PSR sort gate)” value is reported as “high polyreactivity”.
With “QVQLVESGGGIVQAGGSLRLSCSASGSIFPLDGMGSYRQAPGKERELVAAISIGGRTNYADSVKGRFTISRDNAKNTVYLQMTSLKPEDTAVYYCNAVSKFVYRNRILWYDYWGQGTQVTVSS” the “polyreactivity (PSR sort gate)” value was “high polyreactivity”.
With “QVQLVESGGGIVQAGGSLRLSGAASGFTLTSYAMGWYRQPHGNERELVAGISRGGITYYADSVKGRFTISSDNAKNTVYLQMNSLKPEDTAVYYCATEASFYDPDMYPYGYDYWGQGTQVTVSS” the “polyreactivity (PSR sort gate)” value was “high polyreactivity”.
In the case of “QVQLVESGGGIVQAGGSLRLSSAASGFIFARYAMGWYRQAPGKERELVAAISSGGRTYYADSVKGRFTISRDNAKNTVYLQMNSLKPEDTAVYYCAADPASSYGKYSYYYWGQGTQVTVSS”, the “polyreactivity (PSR sort gate)” value is reported as “high polyreactivity”.
For “QVQLVESGGGIVQAGGSLRLSSAASGFTFYKYVMGWYRQSPGKERELVAAISYSSGSTYYADSVKGRFTISRDNAKNTVYLKMNSLKPDDTAVYYCAADSTYYGYAYYYWGQGSQVTVSS”, the “polyreactivity (PSR sort gate)” value was “high polyreactivity”.
With “QVQLVESGGGIVQAGGSLRLSSAASGSTFYTKSIGWYIQAPGKERELVAAISGSGGSTYYADSVKGRFTISRDTAKNTVYLQMISLKPEDTAVYSCAARSRYYDTRFDYWGQGTQVTVSS” the “polyreactivity (PSR sort gate)” value was “low polyreactivity”.
For “QVQLVESGGGIVQAGGSLRLSWAASGSIFDKYAMGWYRQAHGKERELVAAIDSGDTYYADSVKGRFTISRDNAKNPVYFQMNSLKPEDTAVYYWAADDVQYEYDYWGQGTQVSVSS”, the “polyreactivity (PSR sort gate)” value was “low polyreactivity”.
For “QVQLVESGGGIVQAGGSLRLTCAASGFTFFYNAMGWYRQAPGKERELVAAITTNGGSTYYADSVKGRFTISRDNANNTVYLQMNSLKTEDTAVYYFAAEYGITEYDYWGQGTQVTVSS”, the “polyreactivity (PSR sort gate)” value was “low polyreactivity”.
In the case of “QVQLVESGGGIVQAGGSLRVSCAASGSIFLDNAMGWYRQAPGKERELVADISYSGGSTYYADSVKGRFTISRDNAKNTVYLQMNSLKPEDTAVYYCAAGVQLTVPPLRSSVTEYDYWGQGTQVTVSS”, the “polyreactivity (PSR sort gate)” value is reported as “low polyreactivity”.
In the case of “QVQLVESGGGIVQAGGSLRVSCVSSGRTCSRYAMGWSRQAPGKDRELVAAISRRGGSTYYADSVKGRFTISRDNAKNTVYLQMKSLKREDTAVYYCAAGYITWGSGNWVVTPYDYWGQGSQVTVSS”, the “polyreactivity (PSR sort gate)” value is reported as “high polyreactivity”.
In the case of “QVQLVESGGGIVQAGGSLSLSCAASGYNFTQNAMGGYRQAPGKERELVASITSGGSTDYADSVKGRFTISRDNAKNTVYLQMNSLKPEDTAVYYCAAEFHFWGYLYDYWGQGTQVTVSS”, the “polyreactivity (PSR sort gate)” value is reported as “low polyreactivity”.
With “QVQLVESGGGIVQAGGSLSLTWAASGSTFAYYAMGRYRQAPGKERELVAAISSSGGRTYYADSVKWRFTISRDNAKNTVYLQMIMLKPEDSAVYYCWGQATQVTVSS” the “polyreactivity (PSR sort gate)” value was “low polyreactivity”.
